Measurements published in PMC7394560, “Post-replicative pairing of sister ter regions in Escherichia coli involves multiple activities of MatP” (Nature Communications, 2020).

How the values were obtained:
MatP [1] = target: T1, MatP (Escherichia coli, UniProt P0A8N0 1-150); test: pull-down; conditions: EMSA: 10 mM Tris pH 7.5, 125 mM NaCl, 2.5 mM MgCl2, 0.5 mM DTT, 5% glycerol, 1 uM DNA, 0.25 ug poly(dI-dC), 30 C; pull-down: 20 mM Tris pH 7.5, 1 mM MgCl2 …
T1 sequence: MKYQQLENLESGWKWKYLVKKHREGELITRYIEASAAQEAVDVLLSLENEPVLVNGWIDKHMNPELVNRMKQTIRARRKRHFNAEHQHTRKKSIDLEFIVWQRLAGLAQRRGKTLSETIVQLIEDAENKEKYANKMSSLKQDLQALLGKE

[2] = target: the molecule itself; test: native gel or EMSA; 41 bp matS DNA (1 µM) with 3 µM protein; 10 mM Tris pH 7.5, 125 mM NaCl, 2.5 mM MgCl2, 0.5 mM DTT, 5% glycerol, poly(dI-dC); 30 °C for 30 min; 5% native TGE-PAGE; oligomer size on DNA inferred from the mobility of the complexes against theoretical masses
MatPΔ20-His = target: T2, MatPΔ20-His (Escherichia coli, UniProt P0A8N0 1-130); test: EMSA; equivalent efficiency to MatP; faster-migrating complex; EMSA: 10 mM Tris pH 7.5, 125 mM NaCl, 2.5 mM MgCl2, 0.5 mM DTT, 5% glycerol, 1 uM DNA, 0.25 ug poly(dI-dC), 30 C; pull-down: 20 mM Tris pH 7.5, 1 mM MgCl2, 150; conditions: protein: recombinant; tags: His tag (MW 32 kDa with tag); chain copies: 2; label: 5' Cy3 on strand 1; blunt
T2 sequence: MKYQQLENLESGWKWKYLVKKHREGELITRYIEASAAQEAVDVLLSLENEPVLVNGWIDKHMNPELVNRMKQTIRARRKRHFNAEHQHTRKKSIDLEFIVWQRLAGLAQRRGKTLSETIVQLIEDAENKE

MatPΔ20 untagged = target: T3, MatPΔ20 untagged (Escherichia coli, UniProt P0A8N0 1-130); test: EMSA; equivalent efficiency to MatP; EMSA: 10 mM Tris pH 7.5, 125 mM NaCl, 2.5 mM MgCl2, 0.5 mM DTT, 5% glycerol, 1 uM DNA, 0.25 ug poly(dI-dC), 30 C; pull-down: 20 mM Tris pH 7.5, 1 mM MgCl2, 150; conditions: protein: recombinant; tags: none; chain copies: 2; label: 5' Cy3 on strand 1; blunt
T3 sequence: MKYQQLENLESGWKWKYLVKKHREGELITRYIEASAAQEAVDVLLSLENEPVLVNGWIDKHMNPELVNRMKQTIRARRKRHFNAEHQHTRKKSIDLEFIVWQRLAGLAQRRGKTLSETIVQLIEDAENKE

MatP [3] = target: T1, MatP; test: EMSA; 3 uM MatP, 2.5 mM Mg2+, poly(dI-dC); proposed tetramer; titration 0.2-2 uM in Suppl. Fig. 7a,b; EMSA: 10 mM Tris pH 7.5, 125 mM NaCl, 2.5 mM MgCl2, 0.5 mM DTT, 5% glycerol, 1 uM DNA, 0.25 ug poly(dI-dC), 30 C; pull-down: 20 mM Tris pH 7.5, 1 mM MgCl2, 150; conditions: protein: recombinant; MW 21 kDa); chain copies: 4; label: 5' Cy3 on strand 1; blunt

Molecule DNAf(2matS) has a binding signal (% DNAf recovered) (MatP [1]) of 63.

B1: MatP (natural protein, E. coli, UniProt P0A8N0 1-150, looked up)
chain: MKYQQLENLESGWKWKYLVKKHREGELITRYIEASAAQEAVDVLLSLENEPVLVNGWIDKHMNPELVNRMKQTIRARRKRHFNAEHQHTRKKSIDLEFIVWQRLAGLAQRRGKTLSETIVQLIEDAENKEKYANKMSSLKQDLQALLGKE
notes: MatP, macrodomain Ter protein of Escherichia coli; theoretical mass printed as 21 kDa; also called MatP wt; source: E. coli BL21DE3 (pET15b containing matP), purified (heparin column)
For B1, the “stoichiometry N” value [2] was 4.

B2: matS41 (dsDNA)
DNA 1: AAGTACGGTAAAAGGTGACAGTGTCACTTTCATTGTTGGTA
DNA 2: TACCAACAATGAAAGTGACACTGTCACCTTTTACCGTACTT
B2: binds (MatPΔ20-His); binds (MatPΔ20 untagged); binds (MatP [3]).

B3: his-tagged MatPΔ20 (domain or fragment, E. coli, UniProt P0A8N0 1-130, looked up)
chain: MKYQQLENLESGWKWKYLVKKHREGELITRYIEASAAQEAVDVLLSLENEPVLVNGWIDKHMNPELVNRMKQTIRARRKRHFNAEHQHTRKKSIDLEFIVWQRLAGLAQRRGKTLSETIVQLIEDAENKE
notes: MatP of Escherichia coli lacking the last 20 C-terminal residues; theoretical mass of the tagged protein printed as 32 kDa; The printed 32 kDa ('twice bigger' than MatP) is far more than a His tag adds to about 130 residues; also called MatPΔ20-tag; source: E. coli BL21DE3, purified (HisTrap column)
For B3, the “stoichiometry N” value [2] was 2.

B4: untagged MatPΔ20 (domain or fragment, E. coli, UniProt P0A8N0 1-130, looked up)
chain: MKYQQLENLESGWKWKYLVKKHREGELITRYIEASAAQEAVDVLLSLENEPVLVNGWIDKHMNPELVNRMKQTIRARRKRHFNAEHQHTRKKSIDLEFIVWQRLAGLAQRRGKTLSETIVQLIEDAENKE
notes: MatP of Escherichia coli lacking the last 20 C-terminal residues; theoretical mass printed as 18 kDa; source: E. coli BL21DE3 (pET15b containing matPΔ20), purified (heparin column)
In the case of B4, the “stoichiometry N” value [2] is reported as 2.
